These results are taken from US20140239237A1 (BOARD OF TRUSTEES OF MICHIGAN STATE UNIVERSITY, published 2014).

Data set [1] concerns the molecule itself. As to the kind of experiment: in vitro self-assembly into fibers, seen by TEM and AFM.
Data set [2] concerns the molecule itself. As to the kind of experiment: in vitro self-assembly, TEM.

B1: PilA19 peptide (19 amino acid N-terminal truncation of G. sulfurreducens PilA) (peptide)
peptide: AIPQFSAYRVKAYNSAASSDLRNLKTALESAFADDQTYPPES
notes: 42 residues, released from the CBD-intein fusion with DTT; also called PilA19 subunit; PilA19 monomer
In the case of B1, in data set [1], the binding result is “binds”.

B2: PilA19-A20C cysteine-modified recombinant pilin (peptide)
peptide: CIPQFSAYRVKAYNSAASSDLRNLKTALESAFADDQTYPPES
notes: 42 residues; The N-terminal alanine of PilA19, position 20 of full-length mature PilA, is replaced by cysteine; also called cysteine-modified subunit; PilA19-A20C monomer
Turning to B2, the binding result in data set [2] is “binds”.
